Source: patent publication US20170159065A1 (VIB VZW, published 2017)

T1: TIFY8 (Arabidopsis, UniProt Q84MB2 1-361)
T1 sequence (looked up): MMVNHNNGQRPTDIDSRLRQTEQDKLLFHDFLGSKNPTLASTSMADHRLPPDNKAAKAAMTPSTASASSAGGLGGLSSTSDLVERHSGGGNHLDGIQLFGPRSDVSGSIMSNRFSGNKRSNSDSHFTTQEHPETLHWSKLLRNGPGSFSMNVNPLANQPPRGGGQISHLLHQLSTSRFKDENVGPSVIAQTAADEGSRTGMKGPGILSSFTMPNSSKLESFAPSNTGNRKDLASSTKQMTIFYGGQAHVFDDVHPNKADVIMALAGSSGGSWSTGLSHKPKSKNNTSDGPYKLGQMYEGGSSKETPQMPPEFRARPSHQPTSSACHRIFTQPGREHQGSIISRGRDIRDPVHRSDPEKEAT

T2: JAZ3 (Arabidopsis, UniProt Q9LVI4 1-352)
T2 construct: Endogenous prey in TAP; Y2H fusion in the yeast assays
T2 sequence (looked up): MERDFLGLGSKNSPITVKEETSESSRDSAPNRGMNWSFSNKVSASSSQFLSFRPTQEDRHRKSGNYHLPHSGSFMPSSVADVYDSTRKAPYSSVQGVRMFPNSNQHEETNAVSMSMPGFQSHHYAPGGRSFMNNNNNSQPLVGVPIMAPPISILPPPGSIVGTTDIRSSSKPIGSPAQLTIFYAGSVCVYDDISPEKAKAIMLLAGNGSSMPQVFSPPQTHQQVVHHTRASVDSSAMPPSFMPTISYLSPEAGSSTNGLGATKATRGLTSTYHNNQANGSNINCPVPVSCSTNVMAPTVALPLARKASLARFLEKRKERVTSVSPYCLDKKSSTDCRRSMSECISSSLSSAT

B1: PPD2 (PEAPOD2) (other, Arabidopsis thaliana, UniProt Q8GY55 1-315, looked up)
chain: MDVGVTTAKSILEKPLKLLTEEDISQLTREDCRKFLKEKGMRRPSWNKSQAIQQVLSLKALYEPGDDSGAGILRKILVSQPPNPPRVTTTLIEPRNELEACGRIPLQEDDGACHRRDSPRSAEFSGSSGQFVADKDSHKTVSVSPRSPAETNAVVGQMTIFYSGKVNVYDGVPPEKARSIMHFAANPIDLPENGIFASSRMISKPMSKEKMVELPQYGLEKAPASRDSDVEGQANRKVSLQRYLEKRKDRRFSKTKKAPGVASSSLEMFLNRQPRMNAAYSQNLSGTGHCESPENQTKSPNISVDLNSDLNSEDN
notes: Used as tagged bait in TAP from Arabidopsis cell culture and as a GAL4 fusion in Y2H/Y3H; the tags and fusion partners are not described; also called PPD2-HBH

Legend:
[1] = molecular target: the molecule itself; test: yeast two-hybrid
[2] = molecular target: B1; test: yeast two-hybrid
[3] = molecular target: T1, TIFY8; test: tandem affinity purification (TAP) from Arabidopsis cell culture, Orbitrap mass spectrometry
From the text: (§1) PPD proteins belong to the class II of the TIFY protein family together with 12 JAZ proteins […]. In the TIFY proteins, diverse domains are associated with different protein-protein interaction abilities, previously being able to isolate, by using tandem affinity purification (TAP), protein complexes from Arabidopsis cell cultures over-expressing JAZ proteins and to identify their interacting proteins (Pauwels et al., 2010). In order to determine the protein complex associated to PPD2, an updated and more sensitive protocol was applied using Orbitrap mass spectrometry (Eloy et al., 2012). […] To test this hypothesis, all 12 JAZ proteins, PPD1, PPD2 and TIFY8 for interaction with the PPD proteins were tested using yeast two-hybrid (Y2H) assays. These confirmed direct interaction with JAZ3 and TIFY8 and provided evidence of homo- and heterodimerization between PPD1 and PPD2. Moreover, the TAP analysis identified the TPL-adaptor protein NINJA and two proteins of yet unknown function, encoded by At3g24150 and At4g32295 and named KIX8 and KIX9 (see Table 3, Thakur et al., 2013).

[4] = molecular target: T2, JAZ3; test: as above
From the text: as §1

binding result [2]	binding result [3]	binding result [4]	Binder	binding result [1]
binds	–	–	PPD1 (other, Arabidopsis thaliana, UniProt Q7XA73 1-313, looked up, Y2H fusion; also called PEAPOD1) MDVGVSPAKSILAKPLKLLTEEDISQLTREDCRKFLKDKGMRRPSWNKSQAIQQVLSLKALYEPGDDSGAGIFRKILVSQPVNPPRVTTTLIEPSNELEACGRVSYPEDNGACHRMDSPRSAEFSGGSGHFVSEKDGHKTTISPRSPAETSELVGQMTIFYSGKVNVYDGIPPEKARSIMHFAANPIDLPENGIFASSRMISKLISKEKMMELPQKGLEKANSSRDSGMEGQANRKVSLQRYREKRKDRKFSKAKKCPGVASSSLEMFLNCQPRMKAAYSQNLGCTGSPLHSQSPESQTKSPNLSVDLNSEGI	binds
–	binds	binds	B1	binds
